Here are results for 7 molecules from PMC3413111.

Data set [1] deals with T1, Bse634I wt (UniProt Q8RT53 1-293).
T1 sequence: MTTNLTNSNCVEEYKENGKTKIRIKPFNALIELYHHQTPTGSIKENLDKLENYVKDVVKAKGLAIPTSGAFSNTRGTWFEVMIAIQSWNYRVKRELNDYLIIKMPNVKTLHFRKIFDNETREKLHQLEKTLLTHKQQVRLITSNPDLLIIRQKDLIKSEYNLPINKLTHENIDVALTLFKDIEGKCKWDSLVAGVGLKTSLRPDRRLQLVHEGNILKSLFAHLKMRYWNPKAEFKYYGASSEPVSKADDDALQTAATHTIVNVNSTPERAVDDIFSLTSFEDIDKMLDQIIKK
Nature of the data set: EMSA. In general terms: Mobility shift assays separate free from complexed probe on a gel.

Data set [2] addresses T2, Bse634I R226A (UniProt Q8RT53 1-293, R226A).
T2 sequence: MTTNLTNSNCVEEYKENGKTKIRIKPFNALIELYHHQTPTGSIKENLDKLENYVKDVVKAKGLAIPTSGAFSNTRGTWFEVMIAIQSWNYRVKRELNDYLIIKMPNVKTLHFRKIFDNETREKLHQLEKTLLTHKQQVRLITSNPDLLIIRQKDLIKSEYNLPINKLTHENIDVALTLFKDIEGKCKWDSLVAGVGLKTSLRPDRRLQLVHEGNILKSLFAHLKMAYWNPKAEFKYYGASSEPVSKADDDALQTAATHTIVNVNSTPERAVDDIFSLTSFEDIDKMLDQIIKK
The data set is described as follows: crystal structure.

Data set [3] concerns the target T1, Bse634I wt. The data set is described as follows: EMSA. This is another data set of the same source.
The target in data set [4] is T2, Bse634I R226A. The data set is described as follows: crystal structure. This is another data set of the same source.
Data set [5] concerns the target T2, Bse634I R226A. Nature of the data set: crystal structure. The source holds these as a separate data set.

Like-named read-outs stand apart in the source and are kept apart here.

B1: AT (dsDNA)
DNA 1: CGCACGATCACCGGTGATGCACGC
DNA 2: GCGTGCATCACCGGTGATCGTGCG
Take B1: the binding result with Bse634I wt [1] is listed as “binds”.

B2: AT-1 (dsDNA)
DNA 1: TCGCACCGGTGCG
DNA 2: TCGCACCGGTGCG
As to B2, in the data set with Bse634I R226A [2], the binding result is listed as “binds”.

B3: IC (dsDNA)
DNA 1: CGCACGATCGCCGGCGATGCACGC
DNA 2: GCGTGCATCGCCGGCGATCGTGCG
modifications: inosine for G at position 10 of each strand (written as G)
B3: the binding result with Bse634I wt [3] was “binds”.

B4: AU (dsDNA)
DNA 1: CGCACGATCACCGGUGATGCACGC
DNA 2: GCGTGCATCACCGGUGATCGTGCG
modifications: dU for T at position 15 of each strand
Turning to B4, in the data set with Bse634I wt [3], the binding result was “binds”.

B5: AT-2 (dsDNA)
DNA 1: TTCGACCGGTCGA
DNA 2: TTCGACCGGTCGA
For B5, in the data set with Bse634I R226A [4], the binding result is reported as “binds”.

B6: GC-1 (dsDNA)
DNA 1: TCGCGCCGGCGCG
DNA 2: TCGCGCCGGCGCG
As to B6, the binding result with Bse634I R226A [5] is reported as “binds”.

B7: GC (dsDNA)
DNA 1: CGCACGATCGCCGGCGATGCACGC
DNA 2: GCGTGCATCGCCGGCGATCGTGCG
Take B7: in the data set with Bse634I wt [1], the binding result is “binds”.
